Laboratory results reported in patent US20220119492A1 (MEDIKINE, published 2022).
Bridge positions count the residues as written; N and C are the ends. Ends that are not written are not given here.

T1: human IL-2Rβ (CD122 protein, Fc Tag) (27-239) (human, UniProt P14784 27-239)
T1 construct: range 27-239; Bought protein; also called hu-IL-2Rβ subunit; IL-2Rβ subunit; not shown: Fc tag of the bought protein
T1 sequence (looked up): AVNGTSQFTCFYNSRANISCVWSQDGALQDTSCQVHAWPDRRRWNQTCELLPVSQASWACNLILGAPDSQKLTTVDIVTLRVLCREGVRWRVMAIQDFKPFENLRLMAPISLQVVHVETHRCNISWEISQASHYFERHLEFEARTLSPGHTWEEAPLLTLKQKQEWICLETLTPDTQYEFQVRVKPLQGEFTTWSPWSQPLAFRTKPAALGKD


Molecular target: T1, human IL-2Rβ (CD122 protein, Fc Tag) …
Assay: phage ELISA competition
Outline: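 Competitive binding ELISA in which a phage tracer competes with test ligands for human IL-2Rβ-Fc; IC50 is derived from the absorbance signal across the ligand dilution series. Without washing, 50 μL of phage tracer was added for 45 min at 4° C. Bound phage was detected with TMB for 1 to 15 min at 25° C, followed by stop solution and absorbance at 450 nm.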

Row | Binder | IC50 [µM]
1 | LHAGRWNPCWLAQLGELCDLE [SEQ ID NO 2733] | < 100
2 | WYPCWLASLGEVCDLE [SEQ ID NO 2723] | < 100
3 | SQRWYPCWVAHLGELCDLEGVV [SEQ ID NO 2762] | < 100
4 | WYPCWMARMGELCDLE [SEQ ID NO 2714] | < 100
5 | WYPCSIASLGELCDLE [SEQ ID NO 2720] | < 100
6 | VDEFYPCSMAGLGELCDLERQN [SEQ ID NO 2759] | < 100
7 | LPCWIAQLGDLCDLEPEPSPE [SEQ ID NO 2750] | < 100
8 | WSPCWMASLGDLCDLEETRQTE (disulfide 4-13 (inferred)) [SEQ ID NO 2748] | < 100
9 | WWPCWLAQLGELCDLEVNGSLI [SEQ ID NO 2755] | < 100
10 | AMARRYLPCWIAKLGELCELD [SEQ ID NO 2739] | < 100
11 | MTDRAFWNPCWVARLGELCDLD [SEQ ID NO 2736] | < 100
12 | WYPCWRAQLGELCDLVDLGSHL [SEQ ID NO 2747] | < 100
13 | ARTWWPCWRAKLGELCDLVVPE [SEQ ID NO 2757] | < 100
14 | WYPCWLAQLGELCDAE [SEQ ID NO 2726] | < 100
15 | MYPCWIAHLGELCDLD [SEQ ID NO 2719] | < 100
16 | WKPCWMALLGELCDLE [SEQ ID NO 2727] | < 100
17 | EPRWYPCWMAQMGELCDMEMSD (disulfide 7-16 (inferred)) [SEQ ID NO 2765] | < 100
18 | LGSKRQWYPCWVAHLGELCDLE [SEQ ID NO 2730] | < 100
19 | WWPCSIARLGQLCDLD [SEQ ID NO 2724] | < 100
20 | AWDWYPCSVAALGEICDLDIQD [SEQ ID NO 2760] | < 100
21 | HQGFYSCRLARLGELCDLDTGW [SEQ ID NO 2758] | < 100
22 | WRPCWMAHLGDLCDLEMANENP [SEQ ID NO 2753] | < 100
23 | WTPCWIAQLGELCDLEGRHGTV [SEQ ID NO 2749] | < 100
24 | DMFTHRWYPCSMAKLGELCDLE [SEQ ID NO 2735] | < 100
25 | VASERFYPCWIARLGELCDVE [SEQ ID NO 2744] | < 100
26 | RWTQAQWYPCWLAQLGELCDLE [SEQ ID NO 2732] | < 100
27 | WLPCWLAPLGDLCDMDMSAVMN [SEQ ID NO 2752] | < 100

Further lines, results first:

Row | IC50 [µM] | Binder
28 | < 100 | KGSWQPCWFAKLGELCDLHPTS [SEQ ID NO 2763]
29 | < 100 | RPPWYPCWMARLGEVCDMDIML [SEQ ID NO 2761]
30 | < 100 | YLERSRWYPCFIAQLGELCDLE [SEQ ID NO 2741]
31 | < 100 | IERAWEWRPCWLASVGELCDLE (disulfide 10-19 (inferred)) [SEQ ID NO 2743]
32 | < 100 | WYPCWLAQLGEVCDLDDGGGVF [SEQ ID NO 2754]
33 | < 100 | ARGEYRWFPCWMARLGELCDLE [SEQ ID NO 2740]
34 | < 100 | WYPCWLAHLGELCDLDWKGRND [SEQ ID NO 2746]
35 | < 100 | WGGRYWCWMAKLGDLCDLEDEW [SEQ ID NO 2766]
36 | < 100 | RYPCWRAKLGELCDLD [SEQ ID NO 2728]
37 | < 100 | WHPCWMAQVGEVCDLD [SEQ ID NO 2722]
38 | < 100 | QTWYLPCWMAKLGELCDLGERD [SEQ ID NO 2764]
39 | < 100 | EEQSRGFLPCWMALLGELCDLD [SEQ ID NO 2729]
40 | < 100 | LSSKGWYPCWKARLGDLCDLE (disulfide 9-18 (inferred)) [SEQ ID NO 2734]
41 | < 100 | WLPCYMAQLGDLCDLE [SEQ ID NO 2721]
42 | < 100 | LFPCWLAQLGELCDLE [SEQ ID NO 2716]
43 | < 100 | TEMWYPCWMAYQGELCDLDMTY [SEQ ID NO 2756]
44 | < 100 | FYPCWAAHLGDLCDLEYQEAGP [SEQ ID NO 2751]
45 | < 100 | FRVSRDWFPCWMAQLGEVCDLE [SEQ ID NO 2742]
46 | < 100 | NVTYTQWFPCWLARLGELCDLV (disulfide 10-19 (inferred)) [SEQ ID NO 2737]
47 | < 100 | ESEGRGWYPCWNALLGELCDLE [SEQ ID NO 2731]
48 | < 100 | WLPCWRAQLGQLCDLD [SEQ ID NO 2715]
49 | < 100 | RYPCWIAQLGELCDLD [SEQ ID NO 2717]
